Tests used:
[1] = High performance size-exclusion chromatography (HP-SEC): monomer, HMWS, LMWS; type: physicochemical; conditions: method test
Protocol: The ability of the HP-SEC method to detect changes in the monomer, HMWS and LMWS content was tested with stressed samples. […] Multiple freeze-thaw cycles had no influence on the SEC profile.

[2] = tested on: irritable bowel syndrome (IBS); conditions: clinical trials; cited from earlier work
[3] = tested on: constipation predominant IBS (IBS-C); conditions: cited from earlier work
[4] = in solution; cited from earlier work

H-HVEGTFTSDVSSYLEGQAAKEFIAWLVKGRG-OH [ROSE-010]
overall signal intensity (HP-SEC) ([1]; mechanical stress): substantial loss
SEC profile ([1]; multiple freeze-thaw cycles): no influence
HMWS content ([1]; one week storage at 40° C.): slight increase
acute exacerbations of irritable bowel syndrome (IBS) [2]: reduce acute exacerbations of irritable bowel syndrome (IBS)
colonic transit ([3]; at 48 h with 30 and 100 μg): accelerated colonic transit
gastric emptying of solids [3]: delayed gastric emptying of solids
noncovalent aggregates [4]: forms noncovalent aggregates in solution

Reference: patent US11058748B2, “Stable liquid formulations of glucagon-like peptide 1 or analogues thereof” (Rose Pharma LLC, priority 2019, dated 2021)
